Results from the supplement of paper PMC12636428.

System: Saccharomyces cerevisiae
Assay: transcriptional activation domain activity (GFP:mCherry ratio, weighted mean of sorted bins, harmonized to initial dataset scale) (arbitrary fluorescence ratio units); higher = stronger transcriptional activation
Conditions: beta-estradiol 1 µM; induction time 4 h
In short: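 Values are activation activity, found as the read-weighted mean of bin median fluorescence, averaged across barcodes and then mapped linearly onto the initial dataset scale. Barcoded protein tiles fused to an estradiol-inducible synthetic transcription factor were integrated at the URA3 locus of GFP-reporter yeast diploids. Cells were induced for 4 hours at 30 °C with 1 uM beta-estradiol in SC, sorted into 8 bins by GFP:mCherry ratio, and barcode-sequenced, with tiles under 50 reads discarded.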

Sequence	transcriptional activation domain activity
PDEVASEASQPAEPAAASRAESPAAASVYEEAREPQEVQEERVASPVVAATPA	48300
SNRLFVGLPLCRDPEYLKFSVNHTMRVFMSGRMISVLTPVLRPILAPLLCSRK	49600
RKEAMDFDAELKRRNTHLYCAIIDLEKEMQLVAYLVCACLKKVTFLHKVCVLE	67900
RCPAARLASSAPSAPPTPASASRTCPRPPRPSPRRTSSKSCSTRSSSASATPR	48000
DDHRSRRYRDRGRDRDQDEDAEDSHRDRRRRRRSPDEGASRRHQRESHADGDG	35700
GDKTEGAEGEDGAQRRQSTRGRGRSGRGRGGRGRGGRADENKDEENHEDAGES	22500
LYFMPVRWYTYHKIGFHYFLADLCYFVNFLMVLCIWFFPNSKRLFISTFCLAF	72000
KGGEYHRRKGDETSSQGQMGKKVKSEKGEEEKERRKKKERVKQHVVNVRVAEQ	41900
ADEEPTSSLYRSNAKEVSRITTGSCSEIKNKLAGMQLGHNKQVSICSSGLCVP	72000
QLLLSRLVTWLIRLVCQDEGPLVLKKMCSTLATYFLRPTASWPQCIRHLICSF	38800
MILTSHLSFILFLFLFLFPFSFSSFLPFYLHYLFILPSILIFPSPPFLPSLFL	51200
IKQQWSVFVLWSIWYRIAFTPVFWRNLGRRNLGGLIMILMNEYREVILFYWDM	48500
SLDHTSLWIRRSVLSFSIEQIKKVFFQLFSTWYIFIFQLPYFPEWLWKNKTYP	49100
MIFMLDANPSYGTLFILLPYLLSLIIPVLITSVLLSDIFFFFISYCMLCLSCC	52200
LLNNELFQGPSLSDEVTDWFGASEDIGLEFVEPWTELIEQRYMQCGDGDNNNF	151000
MCGRLISLLVVLLLVKFRNSSLCGILDVFLFFFRRTPFVRMGFYFMIFLLLTI	65500
LITIPINYTVYIFVLFPFYVLSGTLCVGYYFHSYSPEFWLLRAWDFFFCFIPM	74300
VCKLLRLETLRWIFREFHWKLHLRKRFLPYHLLTYMRTLRITANNSIKHLSFN	41000
CLIVARVVTVVFPFNFCFYFFVERILISVPVVCVCEVCVLEWCVWLRFLFACA	32000
MFFLFPFLTFGYPAFNLKLCLLIQSNSYCHSFSSLSLYALLLLYLRLLLILLI	71100
GSTHPRQVFDQLDDCSSILFSPLTTNTNNEFEGESDDFVHSPYLNSEADFSQI	75200
GVDPATKEKKVPSDVLEEPPTLKESLQVLYKYCILCFNLNRKRVVLQFIASFL	73300
VLLYFCSGYMFAILITVAYILLQFLVPLITDAHVLFFEWTFFEFLFRIWFLLW	79500
RNMRALRKTWQSSASEDGGGGGEGDEHPHLEDLEYTSREWGAFAQGLKLLAVS	70800
RDANQCLELYPDIRILLVRLLEYPELMVITPIRMAIRCGLLYFSHLGSDRPQA	58800
RLPNEWGWVLNVHLCIFYTIAFCFSVYQFCLDVIIGFPQMPWLESLSLLLPVL	37500
EEEDGQSEPDSARAPRKAKSKTRAATDGEDESEARSKPKASRKGRRKVEASDA	24000
RRVTGKVLLLVWKLGVRPRLNVFEGVVHRLAVAGCFSQIPPAVALCRRILNRI	59000

Sequence	transcriptional activation domain activity
DDERERKRAKGDKDEECHKEPKRSARDKQEESSTTRNSRQSKKPKTAAQPEAK	7230
ERDDSRSERNVDDGDRRRAGRRRRDSRSSDDEHTTSRRRGGKDHADREDSDRR	29100
TCRLSSPHLWWLTFGILCVLYLMVLEIFLLGLLVFFVGPLFYLFWNVVLLCLG	79500
KRPRKKKQQKAAAEEAAEPAGSGDEAAAPPEPKKRRKGKLRKEGDKNGNAAPA	28500
MNLSRVFLKVRAIAFSCISLLSFLWIILLCLMLYYRWDESDHSEHSLLIILLL	45100
MLFLPSYSFSVFLFLFLLFALTVQVCLFLFTTWLVSCFDMYVFVWVGVCLCAR	47700
ICNFFYKNILGMGVLFWYQIYCGWSSTYVYNYVYLLFWNVFWTLCPVIAIGLF	41800
ALCSIAGLACFILFCFLRVRWPAMYAPRLNMKKHAPQPLPNSFLGWIVPVLRT	67400
MNTNWNILPPVLFKWGPSLMVLSFNKPYFCSALPWYLYLCIFMCCLTHLYYFI	70600
MGGAGDKVLICNCSSTDSFLRMFLLILVFFLIILLVCMDWSLRFLMMFVFLLV	19800
QARQSKEPAMSQKDLATKVNEKQSVINDYESGRAVPNQQVLSKLERALGVKLR	36800
EHVFLVYFFIFTMQEFAGELVSLVDVMRRIYSLDQARANRAHWWKWIFRCWLH	58900
MESRARISTSVILYLCARLRSIAVITYMIVVRSLSTFVYLAQRFFILLWPIIW	55600
MHTPFLFLPPCPSRTRLLLFFSLILFLLVLVPAPCHAQPWNLGTLFFIFWLAS	52700
EAKKEGEHGAAPAGEHGAAPAAGGHGAEAKKEGEHGAAPAAGGHGAAPAAGGH	21300
MSFLGLSFFAYLLGVGWILLFCLSFGLPQPLSFITWDCLTRGGFFFLLYFFCF	44500
PKPAPAAAAAPAPAAAPPAAAPAPEPKKYAPPPARPAPAPAAAPVAAAAAAAP	9320
EGGEGGDGAGGDGAAAGGKDGEGGKGGGKEEKGGKAGKDAKGGAKKPGSGKKG	16500
CDTVAHSAGRRERGRKQAGKRNDKERREGEERGKTGKTKRRGVARAGTGASAS	14800
NHCKVFFLSFLFFVIYNYLLFILFFYILLLYCYPKPLFPLLSSSPPSFPPQFI	50300
FFHVTIRVASQSCGIAFGILGFSNFPVFLAYLILGAEGYFSLVLCAFRFLISW	75000
MSGIFSLSHLLVFRFFFFSIMRFLLVFLYFLFLTITIPHSLSLSLHLFHLFVS	52600
MNYLFSCFKFFLFFFFFLLFSFSPHLFFIFSCLLYLACLCVCVWWKGPFSCIS	72500
SSWIKWVFLFARYFPLLAGLCGRIIDSIVLYKHPIPIPLNALRIWYICQVLII	59300
ILVGGFGLELGMNGVYPWYIFLFLACLASDFEFTMLFELTVGFFFPPLLFMCL	51800
MRIFVFFSLLFLFFFCYMYYICLLLFCTLQTYIFILYHIIPYSILIYIYYISN	59200
DVKISNDFFDNGDNLYGNDEEVLFYEDNYNPKMQWSLQDNSAAINNEDARAIF	107000
